Source: PMC10397247

What was measured:
O9 = molecular target: T1, O9; assay: two-hybrid library CCNG1;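 also: natural log of median RNA to DNA barcode read ratio; higher means stronger binding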
T1 chain: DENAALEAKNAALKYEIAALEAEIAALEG

O8 = molecular target: T2, O8; assay: two-hybrid library CCNG1;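 also: natural log of median RNA to DNA barcode read ratio; higher means stronger binding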
T2 chain: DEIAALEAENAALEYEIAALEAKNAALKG

4H348-bN = molecular target: T3, 4H348-bN; assay: two-hybrid library CCNG1;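 also: natural log of median RNA to DNA barcode read ratio; higher means stronger binding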
T3 chain: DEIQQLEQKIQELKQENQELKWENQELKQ

4H741-bN = molecular target: T4, 4H741-bN; assay: two-hybrid library CCNG1;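 also: natural log of median RNA to DNA barcode read ratio; higher means stronger binding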
T4 chain: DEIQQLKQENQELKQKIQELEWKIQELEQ

4H477-bN = molecular target: T5, 4H477-bN; assay: two-hybrid library CCNG1;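 also: natural log of median RNA to DNA barcode read ratio; higher means stronger binding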
T5 chain: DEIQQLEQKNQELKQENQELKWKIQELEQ

4H40-bN = molecular target: T6, 4H40-bN; assay: two-hybrid library CCNG1;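 also: natural log of median RNA to DNA barcode read ratio; higher means stronger binding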
T6 chain: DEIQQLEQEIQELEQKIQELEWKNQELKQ

4H492-bN = molecular target: T7, 4H492-bN; assay: two-hybrid library CCNG1
T7 chain: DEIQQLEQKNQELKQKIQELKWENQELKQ

4H754-bH = molecular target: T8, 4H754-bH; assay: two-hybrid library CCNG1
T8 chain: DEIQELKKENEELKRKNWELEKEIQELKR

P9 = molecular target: T9, P9; assay: two-hybrid library CC1; details: mean of both orientations
T9 chain: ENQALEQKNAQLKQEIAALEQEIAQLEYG

P8mS = molecular target: T10, P8mS; assay: two-hybrid library CC1; details: mean of both orientations
T10 chain: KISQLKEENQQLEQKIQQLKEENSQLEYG

P7mS = molecular target: T11, P7mS; assay: two-hybrid library CC1; details: mean of both orientations
T11 chain: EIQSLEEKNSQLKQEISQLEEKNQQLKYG

P8 = molecular target: T12, P8; assay: two-hybrid library CC1; details: mean of both orientations
T12 chain: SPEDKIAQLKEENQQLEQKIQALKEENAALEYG

P7 = molecular target: T13, P7; assay: two-hybrid library CC1
T13 chain: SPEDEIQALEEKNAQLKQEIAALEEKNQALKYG

## DEIAALEAENAALEYEIAALEAKNAALKG [O8]
O9
  interaction score: -1.9
O8
  interaction score: -2.07

## DEIQQLEQKIQELKQENQELKWENQELKQ [4H348-bN]
4H348-bN
  interaction score: -1.05
4H741-bN
  interaction score: -0.495
4H477-bN
  interaction score: -1.82
4H40-bN
  interaction score: -1
4H492-bN
  interaction score: 0.214
4H754-bH
  interaction score: -0.689

## SPEDEIQALEEKNAQLKQEIAALEEKNQALKYG [P7]
P9
  interaction score: -2.07
P8mS
  interaction score: 0.223
P7mS
  interaction score: -2.52
P8
  interaction score: 0.391
P7
  interaction score: -2.29
